Data on ten molecules can be found in patent publication US7202329 (MYRIAD GENETICS, dated 2007).

B5: VPS28 protein (aa 10-221) (other, human, UniProt Q9UK41 10-221, looked up)
chain: GIGAPGNKPELYEEVKLYKNAREREKYDNMAELFAVVKTMQALEKAYIKDCVSPSEYTAACSRLLVQYKAAFRQVQGSEISSIDEFCRKFRLDCPLAMERIKEDRPITIKDDKGNLNRCIADVVSLFITVMDKLRLEIRAMDEIQPDLRELMETMHRMSHLPPDFEGRQTVSQWLQTLSGMSASDELDDSQVRQMLFDLESAYNAFNRFLHA
B9: Golgi autoantigen (Golgin-84) (aa 198-501) (other, UniProt Q8TBA6 198-501, looked up)
chain: SKENVSSNAACPDHTPTPNDDGKSHELSNLRLENQLLRNEVQSLNQEMASLLQRSKETQEELNKARARVEKWNADHSKSDRMTRGLRAQVDDLTEAVAAKDSQLAVLKVRLQEADQLLSTRTEALEALQSEKSRIMQDQSEGNSLQNQALQTFQERLHEADATLKREQESYKQMQSEFAARLNKVEMERQNLAEAITLAERKYSDEKKRVDELQQQVKLYKLNLESSKQELIDYKQKATRILQSKEKLINSLKEGSGFEGLDSSTASSMELEELRHEKEMQREEIQKLMGQIHQLRSELQDMEA
notes: range 198-501
B10: Tsg101 (aa 147-391) (other, human, UniProt Q99816 147-390, looked up)
chain: SASYPPYQATGPPNTSYMPGMPGGISPYPSGYPPNPSGYPGCPYPPGGPYPATTSSQYPSQPPVTTVGPSRDGTISEDTIRASLISAVSDKLRWRMKEEMDRAQAELNALKRTEEDLKKGHQKLEEMVTRLDQEVAEVDKNIELLKKKDEELSSALEKMENQSENNDIDEVIIPTAPLYKQILNLYAEENAIEDTIFYLGEALRRGVIDLDVFLKHVRLLSRKQFQLRALMQKARKTAGLSDLY
notes: range 147-391

What all share (experiment): yeast two-hybrid
The target of one test is T1, Tsg101 (aa 12-326) (human, UniProt Q99816 12-326).
T1 sequence (looked up): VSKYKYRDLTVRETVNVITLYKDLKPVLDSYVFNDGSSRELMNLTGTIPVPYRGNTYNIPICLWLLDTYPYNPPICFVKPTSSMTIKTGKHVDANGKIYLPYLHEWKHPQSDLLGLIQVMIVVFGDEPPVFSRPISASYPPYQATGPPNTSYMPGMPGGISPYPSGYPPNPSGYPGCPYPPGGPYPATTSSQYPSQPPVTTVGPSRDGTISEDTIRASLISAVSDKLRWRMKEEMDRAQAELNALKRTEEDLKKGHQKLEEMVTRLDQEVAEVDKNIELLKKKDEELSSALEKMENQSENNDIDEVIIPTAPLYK

Test [1] addresses T2, Cytoplasmic linker 2 (CYLN2) (aa 607-947) (UniProt Q9UDT6 607-947).
T2 construct: also called CLIP-115
T2 sequence (looked up): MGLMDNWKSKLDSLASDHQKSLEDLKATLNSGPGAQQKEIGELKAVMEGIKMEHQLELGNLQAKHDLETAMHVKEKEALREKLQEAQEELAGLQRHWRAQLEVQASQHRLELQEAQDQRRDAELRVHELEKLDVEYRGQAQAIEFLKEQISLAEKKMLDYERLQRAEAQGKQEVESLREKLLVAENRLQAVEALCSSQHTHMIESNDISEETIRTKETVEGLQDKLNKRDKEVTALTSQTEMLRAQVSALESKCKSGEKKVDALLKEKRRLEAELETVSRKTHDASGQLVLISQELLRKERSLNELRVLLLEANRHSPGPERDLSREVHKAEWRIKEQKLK

In test [2] the target is B9.
The target of test [3] is B5.
A further test has as its target T3, VPS28 protein (aa 9-211) (human, UniProt Q9UK41 9-211).
T3 construct: range 9-211
T3 sequence (looked up): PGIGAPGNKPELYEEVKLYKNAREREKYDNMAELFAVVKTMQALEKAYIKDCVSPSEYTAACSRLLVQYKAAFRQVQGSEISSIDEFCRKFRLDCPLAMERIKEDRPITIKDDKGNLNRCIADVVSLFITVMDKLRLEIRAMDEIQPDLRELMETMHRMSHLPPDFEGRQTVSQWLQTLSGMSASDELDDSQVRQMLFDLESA

The target of test [4] is T4, hypothetical protein FLJ10540 (aa 1-140) (UniProt Q53EZ4 1-140).
T4 construct: range 1-140
T4 sequence (looked up): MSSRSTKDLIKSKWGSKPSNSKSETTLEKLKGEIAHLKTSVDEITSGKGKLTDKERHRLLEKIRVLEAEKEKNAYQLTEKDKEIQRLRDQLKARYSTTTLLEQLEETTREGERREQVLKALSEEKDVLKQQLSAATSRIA

The test “Tsg101 (aa 147-391)” has as its target B10.
In test [5] the target is T5, Death associated protein 5 (DAP5) (aa 16-157) (UniProt P78344 16-157).
T5 construct: range 16-157
T5 sequence (looked up): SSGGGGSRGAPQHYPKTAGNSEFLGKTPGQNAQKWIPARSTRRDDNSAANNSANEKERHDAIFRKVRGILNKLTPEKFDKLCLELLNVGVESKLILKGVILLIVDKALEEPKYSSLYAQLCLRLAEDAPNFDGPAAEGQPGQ

For test [6], the target named is T6, Chromosome-associated polypeptide HCAP (aa 119-353) (human, UniProt Q9UQE7 119-353).
T6 construct: range 119-353
T6 sequence (Q9UQE7 119-353 limits assumed): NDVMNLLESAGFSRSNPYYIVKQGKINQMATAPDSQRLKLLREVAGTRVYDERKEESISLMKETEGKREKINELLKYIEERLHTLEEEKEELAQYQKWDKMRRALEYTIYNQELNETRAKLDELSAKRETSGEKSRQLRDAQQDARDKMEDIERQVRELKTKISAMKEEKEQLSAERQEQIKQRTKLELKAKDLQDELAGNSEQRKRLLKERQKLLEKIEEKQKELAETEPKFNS

Test [7] deals with T7, Protein kinase C and casein kinase substrate (PACSIN2) (aa 174-367) (UniProt Q9UNF0 174-367).
T7 construct: range 174-367
T7 sequence (looked up): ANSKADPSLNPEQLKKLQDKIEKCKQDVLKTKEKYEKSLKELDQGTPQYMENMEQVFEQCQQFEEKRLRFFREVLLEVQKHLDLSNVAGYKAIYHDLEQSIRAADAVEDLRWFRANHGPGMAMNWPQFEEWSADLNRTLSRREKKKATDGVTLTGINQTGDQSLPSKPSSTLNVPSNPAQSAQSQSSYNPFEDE

B1: Accessory proteins BAP31/BAP29 (BAP31) (aa 184-246) (other, UniProt P51572 184-246, looked up)
chain: LKADLQKLKDELASTKQKLEKAENQVLAMRKQSEGLTKEYDRLLEEHAKLQAAVDGPMDKKEE
notes: range 184-246
With B1, the binding result with Tsg101 (aa 12-326) is reported as “binds”.

B2: Tsg101 (aa 231-391) (other, human, UniProt Q99816 231-390, looked up)
chain: ISAVSDKLRWRMKEEMDRAQAELNALKRTEEDLKKGHQKLEEMVTRLDQEVAEVDKNIELLKKKDEELSSALEKMENQSENNDIDEVIIPTAPLYKQILNLYAEENAIEDTIFYLGEALRRGVIDLDVFLKHVRLLSRKQFQLRALMQKARKTAGLSDLY
Turning to B2, the binding result (in test [1]; in test [2]; in test [3]; with VPS28 protein (aa 9-211)) was “binds” throughout.

B3: Golgi autoantigen (Golgin-84) (aa 198-497) (other, UniProt Q8TBA6 198-497, looked up)
chain: SKENVSSNAACPDHTPTPNDDGKSHELSNLRLENQLLRNEVQSLNQEMASLLQRSKETQEELNKARARVEKWNADHSKSDRMTRGLRAQVDDLTEAVAAKDSQLAVLKVRLQEADQLLSTRTEALEALQSEKSRIMQDQSEGNSLQNQALQTFQERLHEADATLKREQESYKQMQSEFAARLNKVEMERQNLAEAITLAERKYSDEKKRVDELQQQVKLYKLNLESSKQELIDYKQKATRILQSKEKLINSLKEGSGFEGLDSSTASSMELEELRHEKEMQREEIQKLMGQIHQLRSELQ
notes: range 198-497
Regarding B3, the binding result with Tsg101 (aa 12-326) is reported as “binds”.

B4: Tsg101 (aa 140-270) (other, human, UniProt Q99816 140-270, looked up)
chain: PVFSRPISASYPPYQATGPPNTSYMPGMPGGISPYPSGYPPNPSGYPGCPYPPGGPYPATTSSQYPSQPPVTTVGPSRDGTISEDTIRASLISAVSDKLRWRMKEEMDRAQAELNALKRTEEDLKKGHQKL
notes: range 140-270
Take B4: the binding result in test [4] is “binds”.
Consider B5, for which the binding result with Tsg101 (aa 147-391) is listed as “binds”.

B6: Tsg101 (aa 265-391) (other, human, UniProt Q99816 265-390, looked up)
chain: KGHQKLEEMVTRLDQEVAEVDKNIELLKKKDEELSSALEKMENQSENNDIDEVIIPTAPLYKQILNLYAEENAIEDTIFYLGEALRRGVIDLDVFLKHVRLLSRKQFQLRALMQKARKTAGLSDLY
notes: range 265-391
In the case of B6, the binding result in [5], in test [6], in test [7] and in test [3] was “binds” throughout.

B7: VPS28 protein (aa 27-221) (other, human, UniProt Q9UK41 27-221, looked up)
chain: YKNAREREKYDNMAELFAVVKTMQALEKAYIKDCVSPSEYTAACSRLLVQYKAAFRQVQGSEISSIDEFCRKFRLDCPLAMERIKEDRPITIKDDKGNLNRCIADVVSLFITVMDKLRLEIRAMDEIQPDLRELMETMHRMSHLPPDFEGRQTVSQWLQTLSGMSASDELDDSQVRQMLFDLESAYNAFNRFLHA
B7: in the test with Tsg101 (aa 147-391), the binding result is “binds”.

B8: Tsg101 (aa 317-391) (other, human, UniProt Q99816 317-390, looked up)
chain: VIIPTAPLYKQILNLYAEENAIEDTIFYLGEALRRGVIDLDVFLKHVRLLSRKQFQLRALMQKARKTAGLSDLY
notes: range 317-391
Take B8: the binding result in test [3] was “binds”.
As to B9, in the test with Tsg101 (aa 12-326), the binding result is “binds”.
As for B10, the binding result in [2] is on record as “binds”.
